{"source": "patent US11766444B2", "about": "“Pharmaceutical composition for preventing or treating degenerative brain disorders including HDL-APOM-S1P as active ingredient” (Kyungpook National University Industry-Academic Cooperation …, priority 2017, dated 2023)", "molecules": {"B1": {"name": "ApoM: control, ApoM (Mybiosource, SEQ ID NO: 1) (protein)", "chain": "MFHQIWAALLYFYGIILNSIYQCPEHSQLTTLGVDGKEFPEVHLGQWYFIAGAAPTKEELATFDPVDNIVFNMAAGSAPMQLHLRATIRMKDGLCVPRKWIYHLTEGSTDLRTEGRPDMKTELFSSSCPGGIMLNETGQGYQRFLLYNRSPHPPEKCVEEFKSLTSCLDSKAFLLTPRNQEACELSNN", "modifications": "ApoM"}}, "format_in_all_cases": "in vivo, mouse", "key": {"microglia": {"system": "microglia", "assay": "Activity of microglia (Iba1 staining), neuroinflammatory response", "conditions": "APP/PS1 mice, brain tissue, vs untreated APP/PS1 mice", "excerpt": "(§1) Transgenic mice overexpressing hAPP695swe (APPswe) and presenilin-1M146V (PS1) mutations were used as mouse models of the Alzheimer's disease. These are mouse lines produced by GlaxoSmithKline (Harlow, UK) with the standard technology for C57BL background (Charles River, UK), which double heterozygote mutant mice (APP/PS1 tg mice) were produced by backcrossing APPswe mice with pure C57BL/6 backgrounds and crossing PS1 mice\n(§2) After collecting blood from mice, the obtained blood was separated into erythrocytes and plasma by centrifugation. The separated erythrocytes are reacted with 10 uM sphingosine at 37° C. for 1 hour, and then reacted for 1 hour at 37° C. after mixing again with the separated plasma. […]\n(§3) After fixing the cerebral (especially cortex) and hippocampus of mice with 4% paraformaldehyde, the immobilized tissues were incubated with 0.5% thioflavin S (Sigma-Aldrich) or anti-20G10 against Aβ42 (mouse, 1:1000), anti-G30 against Aβ40 (rabbit, 1:1000), anti-lba-1 (rabbit, 1:500, Wako), and anti-GFAP (rabbit, 1:500, DAKO), respectively. […] The sites were analyzed using a laser scanning confocal microscope or Olympus BX51 microscope equipped with Fluoview SV1000 imaging software (Olympus FV1000, Japan). Metamorph software (Molecular Devices) was used to quantify the percentage of area of stained area to area of total tissue. […]"}, "tau": {"system": "tau", "assay": "Tau deposition in brain tissue (AT8 immunofluorescence)", "conditions": "APP/PS1 mice, cerebral cortex, vs 9-month-old untreated APP/PS1 mice", "excerpt": "as §1, §2, §3"}, "APP/PS1 mice": {"system": "APP/PS1 mice", "assay": "Morris water maze (MWM) test", "conditions": "10 days training, probe trial day 11", "excerpt": "as §1\n(§4) After collecting blood from mice, the obtained blood was separated into erythrocytes and plasma by centrifugation. The separated erythrocytes are reacted with 10 uM sphingosine at 37° C. for 1 hour, and then reacted for 1 hour at 37° C. after mixing again with the separated plasma. After completion of the reaction, erythrocytes and plasma were separated by centrifugation, and only the plasma was collected again. The plasma thus obtained was loaded with S1P in HDL (HDL-ApoM-S1P loading), which was illustrated in FIG. 1.\nThe plasma solution thus obtained was intravenously injected 25 μl into mice twice a week for 4 weeks (total 8 times) according to the experimental outline shown in FIG. 2. […]\nIn order to identify potential effects on learning and memory, Morris water maze (MWM) and fear conditioning experiments were performed according to known methods. […] All experiments were recorded using a charge-coupled device (CCD) camera with video monitor and computer. […]"}, "[1]": {"assay": "S1P, ApoM, HDL-S1P and HDL-ApoM levels in plasma of APP/PS1 mice after HDL-ApoM-S1P loading", "conditions": "i.v. 25 μl twice a week for 4 weeks (8 times), vs untreated APP/PS1 mice", "excerpt": "as §1, §4\nThe plasma solution thus obtained was intravenously injected 25 μl into mice twice a week for 4 weeks (total 8 times) according to the experimental outline shown in FIG. 2. As a control group, 3 μM S1P (Avanti) and […] ApoM (Mybiosource, SEQ ID NO: 1) were injected intravenously with 25 μl in mice twice a week for 4 weeks (eight times in total).\nTo collect blood from mouse models (APP/PS1 tg mice or APP/PS1/ApoM tg mice) and normal control mice (WT), the mice were anesthetized first, and 500 μl to 700 μl of blood were collected in heparin tubes (BD Falcon) by cardiac drawing. Each blood sample was then centrifuged at 1,200 rpm for 5 minutes to separate plasma from the supernatant. This plasma sample was stored at −80° C. before being used for analysis.\n60 μl of plasma sample was placed in the ultrafast centrifuge tube, and then the same amount of PBS (Gibco) solution was added to form a layer on the plasma. A high speed centrifuge (HITACHI cp100wx Centrifuge P70AT rotor) was used to centrifuge at 70,000 rpm for 3 hours at 4° C. 60 μl of the lower layer of the sample separated into two layers was transferred into a new ultra-centrifuge tube. […]\nExtraction and quantification of S1P was performed in the following manner. […] The dried lipid extract was resuspended in 25 μl of 0.2% Igepal CA-630 (Sigma-Aldrich), and the concentration level of each lipid was quantified by the UPLC system using the column ACQUITY BEH Shield RP18 1.7 μm 2.1×50 mm (186002853) and 0.1% of NH4OH.\nUsing a commercial ELISA kit (CUSABIO Human ApoM ELISA Kit and Mouse ApoM ELISA Kit), the amount of apolipoprotein M (ApoM) contained in the mouse plasma or HDL fractionated therefrom was quantified according to the manufacturer's protocol. […]"}, "astrocytes": {"system": "astrocytes", "assay": "Activity of astrocytes (GFAP staining), neuroinflammatory response", "conditions": "APP/PS1 mice, brain tissue, vs untreated APP/PS1 mice", "excerpt": "as §1, §2, §3"}, "amyloid-β": {"system": "amyloid-β", "assay": "Amyloid-β deposition in brain tissue (cerebral cortex), thioflavin S staining and immunofluorescence", "conditions": "APP/PS1 mice, vs 9-month-old untreated APP/PS1 mice", "excerpt": "as §1, §2, §3"}}}
{"molecule": "B1", "values": [{"measurement": "inflammatory activity of microglia", "setting": "microglia", "result": "no significant difference"}, {"measurement": "tau deposition (AT8) in brain tissue", "setting": "tau", "result": "did not show a significant difference"}, {"measurement": "learning and memory (spatial memory formation), MWM", "setting": "APP/PS1 mice", "result": "severe impairment"}, {"measurement": "level of ApoM in plasma", "setting": "[1]", "result": "did not show a difference"}, {"measurement": "level of HDL-ApoM in the HDL fraction", "setting": "[1]", "result": "did not show a difference"}, {"measurement": "level of HDL-S1P in the HDL fraction", "setting": "[1]", "result": "did not show a difference"}, {"measurement": "level of S1P in plasma", "setting": "[1]", "result": "did not show a difference"}, {"measurement": "inflammatory activity of astrocytes", "setting": "astrocytes", "result": "no significant difference"}, {"measurement": "Aβ40 deposition in brain tissue", "setting": "amyloid-β", "result": "did not show a significant difference"}, {"measurement": "Aβ42 deposition in brain tissue", "setting": "amyloid-β", "result": "did not show a significant difference"}]}
